Source: patent publication US12611470B2, “Chromatin-opening element for stable long term gene expression” (CZ Biohub SF, LLC, priority 2019, dated 2026)

Key:
P19 cells = assay: Standalone (intrinsic) promoter activity screen, UCOE-GFP construct lacking the Ef1a promoter; format: cell-based, mouse; details: for inherent promoter activity: synthetic construct without other promoter
From the text: A schematic representation of the expression construct in which the candidate region (UCOE) is inserted upstream of the GFP gene in the absence of any other promoter sequences as used is shown as an inlay. As positive controls, the Ef1α promoter, the 2.2 kB A2UCOE sequence, and the 1.2 kB reverse orientation sequence 3′UCOE, were cloned into the same reporter construct as the candidate sequences. The percent GFP positive in the population was monitored as a metric for gene expression by flow cytometry analysis with each passage (% GFP). Stably transfected cells were assayed for % GFP+ and median fluorescent intensity (normalized to Ef1a promoter control). Data is reported as mean±SD from biological duplicates.
P19 cells were seeded at 25,000 cells/well in 12 well plates. 24 h after seeding, cells were transfected using Lipofectamine™ 2000 transfection reagent (Thermo Fisher) according to the manufacturer's instructions using 500 ng DNA/well and 2.5 μL of Lipofectamine per well. 24 hours after transfection, selection was initiated with 1 μg/mL puromycin (Sigma-Aldrich) in regular growth media and, from then on, cells were passaged at 1:15 or 1:20 dilutions whenever cells were 80-90% confluent (every 2-3 days) with frequent refreshing of puromycin-containing media to clear dead cells. After approximately 14-16 days, remaining cells were assumed to be stably transfected and were changed to regular growth media to initiate silencing experiments. During silencing experiments, the P19 cells were passaged every 2-3 days and re-seeded at 15,000 cells/well.
Fluorescence data throughout silencing experiments was obtained using a MACSQuant® VYB flow cytometer (Miltenyi Biotec). EGFP was measured through the 488-nm laser and 525/50 nm band pass filter. Flow cytometry data was analyzed using the FlowJo™ single cell flow cytometry analysis software (Tree Star). After being gated for singlets and viability, GFP+ gates in FlowJo were drawn such that a non-transfected or non-transduced P19 cell population was at 1% GFP+. Median values reported are of cells within the GFP+ gate, both % GFP positive and median are reported with the standard deviation of biological replicates.
As A2UOCE dually functions as a protective regulatory element and a universal promoter, the candidate UCOEs were further screened for standalone promoter activity. A similar experiment as the aforementioned screen was performed using a similar expression construct that lacked the Ef1a promoter. This construct was used to assess whether the candidate sequences could drive reporter expression and act as stand-alone functional promoters. Candidates were compared to the positive control of the EF1a promoter, which had ˜70% GFP+ cells after two weeks of antibiotic selection, showing a distinct positive population in the fluorescence histogram. The GFP+ gate (i.e., flow cytometry fluorescence threshold for GFP+ cells) was set to encompass 1% of untransfected cells and then applied to all samples. […] Such a result appears as a bimodal distribution on a histogram, with a peak below the gate threshold (i.e., GFP negative cell population) and a peak above it (i.e., the distinct GFP positive population mentioned above). […] In this study, a % GFP+ of at least 50% is considered to reflect the existence of a second population in the histograms, and thus a binary indicator of promoter function. […] The median GFP intensity of the GFP+ population was used a measure of the strength of the promoter, and normalized to the Ef1a positive control as shown in FIG. 2C.
This aligns with previous observations that the RNPA2B1 promoter is much stronger than that of CBX3 (Zhang, F., et al. (2010) Mol Ther, 18, 1640-1649 (7)). However, the RNPA2B1 promoter in A2UCOE is only 30% as strong as the EF1α promoter. […]

[1] = test system: P19 murine embryonic carcinoma stem cell line; assay: Stable transfection silencing screen of candidate UCOEs linked to Ef1α-GFP; format: cell-based, mouse; details: UCOE-Ef1α-GFP stable transfection
Method: The candidate regions tested were Candidates 1, 1R, 3, 5, 6, 6R, 7, 8, 9R, 10, and 10R, with “R” denoting that the reverse orientation of the candidate region was tested. As a negative control, the stable expression construct without a UCOE or candidate region was assessed (Ef1a). As a positive control, the 2.2 kB A2UCOE sequence, as well as the 1.2 kB reverse orientation sequence 3′UCOE, were cloned into the same reporter construct as the candidate sequences. The percent GFP positive in the population was monitored as a metric for silencing by flow cytometry analysis with each passage, with the change (difference between final and initial time points) plotted on the graph (Δ% GFP+).
The assay is the same stable transfection screen format described for FIG. 2B. […]
Fluorescence data throughout silencing experiments was obtained using a MACSQuant® VYB flow cytometer (Miltenyi Biotec). EGFP was measured through the 488-nm laser and 525/50 nm band pass filter. Flow cytometry data was analyzed using the FlowJo™ single cell flow cytometry analysis software (Tree Star). […]
Candidates were initially screened in the P19 murine embryonic carcinoma stem cell line. […] As P19 cells readily integrate DNA, a stable transfection of the expression construct performed. […]

B1: Candidate 6: Full length SRF-UCOE, SEQ ID NO:1; region between human SURF1 and SURF2 including first introns, chr9 (nucleic acid, listed as Homo sapiens)
DNA: GCACACGACCACAATTCCACTGAAAGCATTTTAATACGGAACTTGTCACTCCCAGGGAGCCTCCGCTCAGCCGGCAGTTGGTTCATTTCAATCCCCACGACAACCCTTCAAAGTGCAGGGCAGACAGCAGGTGGCTCTGCCCAGGCGCCTGGATCACAGCCCGGCCTGCAGCCCTCACCTGGGCGCGGGGAGACCCTGAGGACGCTCCTCCAGGCGGCGCTGGCCGGGGCCTGCGGACACGGACGGGCGGGCTGAGCTCCGGGACCCCTCCCCGCGCCCCGCACCCCGCACCCCGCACCCCGCACCCCGCACCCGGCGCTCACCCGTCCCAGCCCCGCCGCCCGCAGCCCCAGCTGCAACGCAGCCACCGCCGCCATCGCACCCGGCCCCGCGGGCGCTTCCGGGACGCAGGAGGCATCTGCATCCGGGGCGCCGCTGAGTCCCGCCCAGAGCCCCGCCCCCGGCTCCAGGTTCTGCGAGCGGCTTCCGCCGGGCTGCTCCGCGGGCGCGTCGGCCATGAGCGAGTTGCCGGGCGACGTGCGGGCGTTTCTGCGGGAGCACCCGAGCCTGCGGCTCCAGACGGACGCCCGCAAGGTTCGCAGCGCGGGAGGGGAACGGAGTGGCGGAGAAGGGCGCAGTTGGGATGAGGGGCTGAGGGGAGGGCAGGGGAGAGGAGAGGGCAGGGGAGAGGGGAGAGGGGAGAGCAGGAGAGAGGGGAAGGCAGGGGAGAGGGCGCGGCGGGATCAGGGGAGGAGAGGGAAGGGGGCGCGGCAGGAGGGGGCACCAGGGAGCGGAGCCCTGGCCCTCCTGACGTCCTGCCCGCCCACGCGTCCGCAGGTGAGGTGCATCCTGACAGGTCACGAGCTGCCCTGCCGCCTGCCGGAGCTCCAGGTCTACACCCGCGGCAAAAAGTACCAGCGGCTGGTCCGCGCCTCCCCGGCCTTCGACTATGCAGAGTTCGAGCCGCACATCGTGCCCAGCACCAAGAACCCGTAGGTGGTC
Question: Which “peaks in fluorescence histogram (binary indicator of promoter function)” value (P19 cells; at least 50% GFP+ = second population) does the source give for B1 here?
Answer: only one peak

Question: What about the “% GFP+ cells, representative flow cytometry example” value (P19 cells; promoterless GFP construct, after two weeks of antibiotic selection, one representative example) of the same molecule?
Answer: 1.99%

Question: And the inherent promoter activity (P19 cells)?
Answer: did not exhibit inherent promoter activity

Question: And the inherent promoter activity (P19 cells; listed as SRF-UCOE element)?
Answer: does not initiate transcription

Question: What about the “silencing resistance / stable expression relative to the negative (Ef1α-only) control” value ([1]; 19 days) of the same molecule?
Answer: significant improvement in stable expression

Question: And the “loss in percent GFP positive cells over the time period” value ([1]; over 19 days after puromycin removal, flow cytometry)?
Answer: about 6%
